To fix the notation:
B1: BDG11.007 (human IgG1) (antibody, V domains shown)
VH: EVQLVQSGAEVKKPGESLKISCKGSGYSFTSYWIGWVRQMPGKGLEWMGIIYPSDSDTRYSPSFQGQVTISADKSISTAYLQWSSLKASDTAMYYCARYPNYGAFDIWGQGTMVTVSS
VL: EIVLTQSPATLSLSPGERATLSCRASQSVWSYLAWYQQKPGQAPRLLIYDASNRATGIPARFSGSGSGTDFTLTISSLEPEDFAVYYCQQYFNWGWPFGQGTKLEIK
B2: BDG11.004 (human IgG1) (antibody, V domains shown)
VH: B1 VH
VL: B1 VL with W30S, N93Y
B3: BDG11.006 (human IgG1) (antibody, V domains shown)
VH: B1 VH
VL: B1 VL with N93Y, W94N
B4: BDG11.003 (human IgG1) (antibody, V domains shown)
VH: B1 VH
VL: B1 VL with W30F, N93Y
B5: BDG11.001 (clone 11.4C_11.001 as soluble human IgG1) (antibody, V domains shown)
VH: B1 VH
VL: B1 VL with N93Y

By Kd is commonly meant the free concentration of one partner at which half of the binding sites on the other are occupied at equilibrium, for simple one-to-one binding. What is called koff is the rate constant with which the complex falls apart.

Numbering of substitutions follows the chain as printed.

For the first assay, the target named is T1, human IL-17A (recombinant) (human, UniProt Q16552 24-155). The experiment in a line: SPR. (In general: Surface plasmon resonance follows binding to a sensor surface in real time, without labels.)
T1 sequence (Q16552 24-155): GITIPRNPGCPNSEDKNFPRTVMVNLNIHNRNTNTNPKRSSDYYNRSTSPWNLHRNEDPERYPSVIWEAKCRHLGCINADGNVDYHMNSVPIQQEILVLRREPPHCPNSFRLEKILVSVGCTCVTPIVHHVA
On to B1, for which the Kd came to 2.61 nM. Consider B2, for which the equilibrium dissociation constant (Kd) worked out at 8.69 nM. Regarding B3, the Kd was found to be 0.697 nM. With B4, the Kd amounted to 0.935 nM.

The target in another assay is T1, human IL-17A (recombinant). The experiment in a line: SPR. The source holds these as a separate data set.
Regarding B1, the koff is 0.0045 s⁻¹.

As for B2, the koff turned out to be 0.00221 s⁻¹.

With B3, the off-rate (koff) is 0.0009 s⁻¹. Regarding B4, the dissociation rate constant (koff) was 0.000641 s⁻¹.

Another assay has as its target T1, human IL-17A (recombinant). The experiment in a line: SPR. This is another data set of the same source.
On to B5, for which the koff was determined as 0.000634 s⁻¹.
